Measurements as given in patent US7558625B2, “Combined micro-channel generation and iontophoresis for transdermal delivery of pharmaceutical agents” (TransPharma Medical Ltd., priority 2004, dated 2009).

Assay: Transdermal delivery of hGH by ViaDerm and iontophoresis in anesthetized pigs, plasma hGH
Assay type: in vivo
Design: average AUC: unit: ng×hr/ml
Protocol: ViaDerm applications were performed on 8 adjacent sites on the marginal ear of each of the pigs using 80 μm electrodes and 2 bursts.
2 groups of pigs (males, 10-15 kg, large white) were tested: • Group 1: SC (250 μg)—3 pigs (no. 3, 9 and 25). • Group 2: ViaDerm and then iontophoresis was applied 5 times, each iontophoresis patch contained 22.5 mg (22.5×5; total of 112.5 mg)—3 pigs (no. 19, 20 and 21). Results

hGH: human growth hormone (Genotropin, Pharmacia and Upjohn)
hGH plasma levels (SC 0.25 mg hGH, pig3, 0 h): 0.14 ng/mL
hGH plasma levels (SC 0.25 mg hGH, pig3, 1 h): 6.40 ng/mL
hGH plasma levels (SC 0.25 mg hGH, pig3, 2 h): 10.57 ng/mL
hGH plasma levels (SC 0.25 mg hGH, pig3, 3 h): 6.02 ng/mL
hGH plasma levels (SC 0.25 mg hGH, pig3, 4 h): 5.39 ng/mL
hGH plasma levels (SC 0.25 mg hGH, pig3, 5 h): 2.57 ng/mL
hGH plasma levels (SC 0.25 mg hGH, pig3, 6 h): 3.35 ng/mL
hGH plasma levels (SC 0.25 mg hGH, pig3, 7 h): 2.40 ng/mL
hGH plasma levels (SC 0.25 mg hGH, pig3, 8 h): 2.00 ng/mL
hGH plasma levels (SC 0.25 mg hGH, pig3, 9 h): 1.48 ng/mL
hGH plasma levels (SC 0.25 mg hGH, pig3, 10 h): 1.18 ng/mL
hGH plasma levels (SC 0.25 mg hGH, pig3, 11 h): 1.49 ng/mL
hGH plasma levels (SC 0.25 mg hGH, pig3, 12 h): 1.75 ng/mL
hGH plasma levels (SC 0.25 mg hGH, pig9, 0 h): 0.08 ng/mL
hGH plasma levels (SC 0.25 mg hGH, pig9, 1 h): 22.96 ng/mL
hGH plasma levels (SC 0.25 mg hGH, pig9, 2 h): 18.06 ng/mL
hGH plasma levels (SC 0.25 mg hGH, pig9, 3 h): 15.88 ng/mL
hGH plasma levels (SC 0.25 mg hGH, pig9, 4 h): 12.39 ng/mL
hGH plasma levels (SC 0.25 mg hGH, pig9, 5 h): 9.85 ng/mL
hGH plasma levels (SC 0.25 mg hGH, pig9, 6 h): 6.53 ng/mL
hGH plasma levels (SC 0.25 mg hGH, pig9, 7 h): 6.31 ng/mL
hGH plasma levels (SC 0.25 mg hGH, pig9, 8 h): 4.19 ng/mL
hGH plasma levels (SC 0.25 mg hGH, pig9, 9 h): 2.58 ng/mL
hGH plasma levels (SC 0.25 mg hGH, pig9, 10 h): 1.83 ng/mL
hGH plasma levels (SC 0.25 mg hGH, pig9, 11 h): 1.25 ng/mL
hGH plasma levels (SC 0.25 mg hGH, pig9, 12 h): 0.88 ng/mL
hGH plasma levels (SC 0.25 mg hGH, pig25, 0 h): 0.10 ng/mL
hGH plasma levels (SC 0.25 mg hGH, pig25, 1 h): 38.06 ng/mL
hGH plasma levels (SC 0.25 mg hGH, pig25, 2 h): 31.00 ng/mL
hGH plasma levels (SC 0.25 mg hGH, pig25, 3 h): 16.32 ng/mL
hGH plasma levels (SC 0.25 mg hGH, pig25, 4 h): 13.40 ng/mL
hGH plasma levels (SC 0.25 mg hGH, pig25, 5 h): 8.69 ng/mL
hGH plasma levels (SC 0.25 mg hGH, pig25, 6 h): 6.66 ng/mL
hGH plasma levels (SC 0.25 mg hGH, pig25, 7 h): 3.89 ng/mL
hGH plasma levels (SC 0.25 mg hGH, pig25, 8 h): 2.76 ng/mL
hGH plasma levels (SC 0.25 mg hGH, pig25, 9 h): 1.67 ng/mL
hGH plasma levels (SC 0.25 mg hGH, pig25, 10 h): 1.19 ng/mL
hGH plasma levels (SC 0.25 mg hGH, pig25, 11 h): 1.09 ng/mL
hGH plasma levels (SC 0.25 mg hGH, pig25, 12 h): 0.78 ng/mL
hGH plasma levels (SC 0.25 mg hGH, pigs, Average, 0 h): 0.1 ng/mL
hGH plasma levels (SC 0.25 mg hGH, pigs, Average, 1 h): 22.5 ng/mL
hGH plasma levels (SC 0.25 mg hGH, pigs, Average, 2 h): 19.9 ng/mL
hGH plasma levels (SC 0.25 mg hGH, pigs, Average, 3 h): 12.7 ng/mL
hGH plasma levels (SC 0.25 mg hGH, pigs, Average, 4 h): 10.4 ng/mL
hGH plasma levels (SC 0.25 mg hGH, pigs, Average, 5 h): 7.0 ng/mL
hGH plasma levels (SC 0.25 mg hGH, pigs, Average, 6 h): 5.5 ng/mL
hGH plasma levels (SC 0.25 mg hGH, pigs, Average, 7 h): 4.2 ng/mL
hGH plasma levels (SC 0.25 mg hGH, pigs, Average, 8 h): 3.0 ng/mL
hGH plasma levels (SC 0.25 mg hGH, pigs, Average, 9 h): 1.9 ng/mL
hGH plasma levels (SC 0.25 mg hGH, pigs, Average, 11 h): 1.3 ng/mL
hGH plasma levels (SC 0.25 mg hGH, pigs, Average, 12 h): 1.1 ng/mL
average AUC (SC 250 μg, 3 pigs): 90.3
AUC (SC 250 μg, pig no. 3): 44 ng·h/mL
AUC (SC 250 μg, pig no. 9): 102 ng·h/mL
AUC (SC 250 μg, pig no. 25): 125 ng·h/mL
Amount delivered (SC 250 μg, pigs): 250 µg
average AUC (ViaDerm, Ionto 22.5 mg × 5, 3 pigs): 210.3
AUC (ViaDerm, Ionto 22.5 mg × 5, pig no. 19): 138 ng·h/mL
AUC (ViaDerm, Ionto 22.5 mg × 5, pig no. 20): 215 ng·h/mL
AUC (ViaDerm, Ionto 22.5 mg × 5, pig no. 21): 278 ng·h/mL
Amount delivered (ViaDerm, Ionto 22.5 mg × 5, pigs): 589 µg
hGH plasma levels (ViaDerm, Iontoph. × 5 Total 112.5 mg hGH, pig19, 0 h): 0.04 ng/mL
hGH plasma levels (ViaDerm, Iontoph. × 5 Total 112.5 mg hGH, pig19, 1 h): 8.39 ng/mL
hGH plasma levels (ViaDerm, Iontoph. × 5 Total 112.5 mg hGH, pig19, 2 h): 18.46 ng/mL
hGH plasma levels (ViaDerm, Iontoph. × 5 Total 112.5 mg hGH, pig19, 3 h): 24.50 ng/mL
hGH plasma levels (ViaDerm, Iontoph. × 5 Total 112.5 mg hGH, pig19, 4 h): 25.34 ng/mL
hGH plasma levels (ViaDerm, Iontoph. × 5 Total 112.5 mg hGH, pig19, 5 h): 25.27 ng/mL
